Data: article doi:10.1101/2020.08.12.247809 (bioRxiv, 2020)

Experiments:
[1] = target: GST-HDAC1 (mouse, UniProt O09106 1-482); test: pull-down
[2] = target: the molecule itself; test: SEC

GST-HDAC1, sequence (O09106 whole entry): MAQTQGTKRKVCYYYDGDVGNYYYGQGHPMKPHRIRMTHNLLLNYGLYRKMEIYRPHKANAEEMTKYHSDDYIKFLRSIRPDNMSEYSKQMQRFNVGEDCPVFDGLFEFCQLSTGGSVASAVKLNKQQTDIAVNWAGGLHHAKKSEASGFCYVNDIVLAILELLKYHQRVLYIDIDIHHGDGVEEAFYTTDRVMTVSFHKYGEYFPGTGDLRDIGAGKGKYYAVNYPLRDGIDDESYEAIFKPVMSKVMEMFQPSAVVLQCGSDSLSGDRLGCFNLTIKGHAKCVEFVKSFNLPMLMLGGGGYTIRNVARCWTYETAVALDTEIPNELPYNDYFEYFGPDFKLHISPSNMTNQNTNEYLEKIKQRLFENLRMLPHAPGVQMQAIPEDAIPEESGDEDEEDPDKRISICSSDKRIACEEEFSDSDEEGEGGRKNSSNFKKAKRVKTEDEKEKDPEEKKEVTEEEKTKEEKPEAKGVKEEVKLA

binding result [1]: binds
B1: His6-KIAA1841(BTB) (domain or fragment, mouse, UniProt Q68FF0-1 144-261, looked up)
chain: GPNMVIHVCDEAKSLKEDFICPRDLLISEMKYFAEYLSMDAQRWEEVDISVHCDVHIFNWLIKYVKRNTKESKDCEIPALEPGNVISILISSEFLKMDSLVEQCIQYCHKNMNAIVAA
stoichiometry N [2]: 2
